Data reported in patent US20240002531A1 (ONO PHARMACEUTICAL, published 2024).
Read-outs that look alike come from different tables or passages of the source.

Assays:
Experiment in all cases: peptide ELISA, OD 655 nm
[1] = molecular target: T1, P612A peptide (HER2 603-622 with P612A) (human)
T1 peptide: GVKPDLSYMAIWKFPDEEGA

[2] = molecular target: T2, V604A peptide (HER2 603-622 with V604A) (human)
T2 peptide: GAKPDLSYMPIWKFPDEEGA

[3] = molecular target: T3, M611A peptide (HER2 603-622 with M611A) (human)
T3 peptide: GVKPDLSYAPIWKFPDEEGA

[4] = molecular target: T4, D618A peptide (HER2 603-622 with D618A) (human)
T4 peptide: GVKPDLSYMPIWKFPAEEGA

[5] = molecular target: T5, K605A peptide (HER2 603-622 with K605A) (human)
T5 peptide: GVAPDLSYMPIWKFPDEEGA

[6] = molecular target: T6, HER2 peptide p603-622 (amino acids 603 to 622 of human HER2) (human)
T6 construct: Synthetic peptide; also called wild-type HER2 peptide
T6 peptide: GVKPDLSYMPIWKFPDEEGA

[7] = molecular target: T7, D607A peptide (HER2 603-622 with D607A) (human)
T7 peptide: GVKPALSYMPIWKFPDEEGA

[8] = molecular target: T8, HER2_604-622C peptide (NH2-VKPDLSYMPIWKFPDEEGAC-COOH) (human)
T8 construct: KLH was added for immunisation, the peptide itself was coated in the screening ELISA
T8 peptide: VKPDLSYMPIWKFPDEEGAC

[9] = molecular target: T9, E620A peptide (HER2 603-622 with E620A) (human)
T9 peptide: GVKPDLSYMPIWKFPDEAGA

[10] = molecular target: T10, F616A peptide (HER2 603-622 with F616A) (human)
T10 peptide: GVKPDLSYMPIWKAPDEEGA

[11] = molecular target: T11, I613A peptide (HER2 603-622 with I613A) (human)
T11 construct: also called 1613A
T11 peptide: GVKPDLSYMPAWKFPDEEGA

[12] = molecular target: T12, L608A peptide (HER2 603-622 with L608A) (human)
T12 peptide: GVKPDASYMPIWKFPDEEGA

[13] = molecular target: T13, K615A peptide (HER2 603-622 with K615A) (human)
T13 peptide: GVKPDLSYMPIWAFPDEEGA

[14] = molecular target: T14, W614A peptide (HER2 603-622 with W614A) (human)
T14 peptide: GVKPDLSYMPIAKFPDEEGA

[15] = molecular target: T15, P606A peptide (HER2 603-622 with P606A) (human)
T15 peptide: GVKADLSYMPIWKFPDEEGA

[16] = molecular target: T16, G603A peptide (HER2 603-622 with G603A) (human)
T16 peptide: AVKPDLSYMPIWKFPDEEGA

[17] = molecular target: T17, E619A peptide (HER2 603-622 with E619A) (human)
T17 peptide: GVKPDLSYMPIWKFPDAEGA

[18] = molecular target: T18, Y610A peptide (HER2 603-622 with Y610A) (human)
T18 peptide: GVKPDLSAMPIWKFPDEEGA

[19] = molecular target: T19, G621A peptide (HER2 603-622 with G621A) (human)
T19 peptide: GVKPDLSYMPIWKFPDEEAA

[20] = molecular target: T20, S609A peptide (HER2 603-622 with S609A) (human)
T20 peptide: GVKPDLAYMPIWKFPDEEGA

[21] = molecular target: T21, P617A peptide (HER2 603-622 with P617A) (human)
T21 peptide: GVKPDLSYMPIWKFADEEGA

[22] = molecular target: T1, P612A peptide (HER2 603-622 with P612A)
[23] = molecular target: T2, V604A peptide (HER2 603-622 with V604A)
[24] = molecular target: T3, M611A peptide (HER2 603-622 with M611A)
[25] = molecular target: T4, D618A peptide (HER2 603-622 with D618A)
[26] = molecular target: T5, K605A peptide (HER2 603-622 with K605A)
[27] = molecular target: T6, HER2 peptide p603-622 (amino acids 603 …)
[28] = molecular target: T7, D607A peptide (HER2 603-622 with D607A)
[29] = molecular target: T8, HER2_604-622C peptide …
[30] = molecular target: T9, E620A peptide (HER2 603-622 with E620A)
[31] = molecular target: T10, F616A peptide (HER2 603-622 with F616A)
[32] = molecular target: T11, I613A peptide (HER2 603-622 with I613A)
[33] = molecular target: T12, L608A peptide (HER2 603-622 with L608A)
[34] = molecular target: T13, K615A peptide (HER2 603-622 with K615A)
[35] = molecular target: T14, W614A peptide (HER2 603-622 with W614A)
[36] = molecular target: T15, P606A peptide (HER2 603-622 with P606A)
[37] = molecular target: T16, G603A peptide (HER2 603-622 with G603A)
[38] = molecular target: T17, E619A peptide (HER2 603-622 with E619A)
[39] = molecular target: T18, Y610A peptide (HER2 603-622 with Y610A)
[40] = molecular target: T19, G621A peptide (HER2 603-622 with G621A)
[41] = molecular target: T20, S609A peptide (HER2 603-622 with S609A)
[42] = molecular target: T21, P617A peptide (HER2 603-622 with P617A)

Measured: binding result

B1: H2Mab-291 antibody (antibody, mouse IgG3, V domains shown)
VH: EVQLQQSGPELVKPGASMKISCKASGYSFTGYTMNWVKQSHGKNLEWIGLINPYNGNTRYNQKFQDKATLTVDRSSSTAYMELLSLTSEDSAVYYCVKEPSDYWGQGTTLTVSS
VL: DVVMTQTPLSLPVSLGDQASISCRSSQSLVHINGNTYLHWYLQKPGQSPKLLIYKVSKRFSGVPDRFSGSGSGTDFTLKISRVEAADLGVYFCSQSTHVPPTFGGGTKLEIKR
binds: [1] | [2] | [3] | [4] | [5] | [6] | [7] | [8] | [9] | [10] | [11] | [12] | [13] | [14] | [15] | [16] | [17] | [18] | [19] | [20] | [21]

B2: H2Mab-289 antibody (antibody, mouse IgG1, kappa, V domains shown)
VH: EVQLQQSGPELVKPGASVKISCKASGYSFTGFFMNWVMQSHGKSLEWIGRINPYNGDTFYNQKFNDKATLTVDKSSRTAHMDLRNLASEDSAVYYCATISGNYRGYAMDNWGQGTSVTVSS
VL: DVLMTQTPLSLPVSLGDQASISCRSSQTILHTNGNTYLEWYLQKPGQSPKLLIYKVSNRFSGVPDRFSGSGSGTDFTLKISRVEAEDLGVYYCFQGSRVPPTFGGGTKLEIKR
binds: [1] | [2] | [3] | [4] | [5] | [6] | [7] | [8] | [9] | [10] | [11] | [12] | [13] | [14] | [15] | [16] | [17] | [18] | [19] | [20] | [21]

B3: H2Mab-285 antibody (antibody, mouse IgG3, V domains shown)
VH: EVQLVESGGGLVQPGGSLKLSCAASGFTFSNYGIFWVRQTPDKRLELVATVKSNGGSTYYPDSVKGRFTISRDNAKKTLYLQMSSLKSEDTAMYYCAREGGDYWGQGTSVTVSS
VL: DIVMTQSHKFMSTSVGDRVSITCKASQDVGTAVAWYQQKPGQSPKLLIYWTSTRHTGVPDRFTGSGSGTDFTLTIRNVQSEDLADYFCQQYNRNPLTFGAGTRLELKR
binds: [22] | [23] | [24] | [25] | [26] | [27] | [28] | [29] | [30] | [31] | [32] | [33] | [34] | [35] | [36] | [37] | [38] | [39] | [40] | [41] | [42]
